Results: the supplement of paper PMC10567573

B1: BRF1 (parent)
chain: CTACGSVLEDNIIVSEVQFVESSG
B2: TSN (parent)
chain: FLAAEQDIREEIRKVVQSLEQTAR

Variants of: B1
Assay: protein stability index of a GFP-peptide fusion (GPS, HEK-293T) (PSI 1-6); higher = more stable
Details: c terminus: a fixed tail appended
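Further: lentivirally expressed fusions sorted by FACS into six bins by GFP to DsRed ratio, PSI derived from sequencing read proportions per bin multiplied by bin number.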

Row | Variant | protein stability index
1 | G24V | 2.45
2 | G24H | 2.25
3 | G24E | 3.58
4 | G24F | 2.03
5 | G24D | 3.38
6 | G24N | 3.01
7 | G24I | 3.06
8 | G24C | 3.09
9 | G24P | 3.28
10 | G24Y | 2.89
11 | G24A | 3.67
12 | G24W | 2.09
13 | G24K | 3.25
14 | G24R | 2.64
15 | G24Q | 2.95
16 | G24L | 3.01
17 | G24S | 3.08
18 | G24M | 3.13
19 | S23M | 2.81
20 | S23I | 2.88
21 | S23V | 2.63
22 | S23E | 2.91
23 | S23Q | 3.55
24 | S23P | 2.72
25 | S23N | 3.15
26 | S23K | 4.04
27 | S23L | 3.03

Row | Variant | protein stability index
28 | S23Y | 2.51
29 | S23H | 3.24
30 | S23A | 3.14
31 | S23F | 2.42
32 | S23C | 2.9
33 | S23W | 2.53
34 | S23T | 3.17
35 | S22K | 3.81
36 | S22N | 3.07
37 | S22W | 2.66
38 | S22H | 3.06
39 | S22P | 3.39
40 | S22A | 3.73
41 | S22C | 1.88
42 | S22R | 2.18
43 | S22L | 2.09
44 | S22E | 3.83
45 | S22T | 2.33
46 | S22I | 1.52
47 | S22Q | 3.38
48 | S22G | 2.97
49 | S22F | 2.32
50 | S22D | 3.7
51 | S22V | 2.75
52 | S22M | 2.44
53 | S22Y | 2.38
54 | E21L | 2.7

Row | Variant | protein stability index
55 | E21G | 3.58
56 | E21S | 2.54
57 | E21V | 2.82
58 | E21N | 3.51
59 | E21F | 1.87
60 | E21Q | 3.02
61 | E21Y | 1.77
62 | E21W | 2.05
63 | E21R | 3.53
64 | E21I | 2.28
65 | E21C | 3.27
66 | E21A | 2.58
67 | E21H | 2.88
68 | E21T | 2.34
69 | E21P | 3.38
70 | E21K | 2.94
71 | E21D | 3.19
72 | E21M | 2.4
73 | V20R | 3.18
74 | V20N | 2.94
75 | V20S | 4.23
76 | V20T | 3.58
77 | V20P | 3.48
78 | V20Q | 3.35
79 | V20Y | 2.44

Variants of: B2
Assay: as above
Details: c terminus: a fixed tail appended

Row | Variant | protein stability index
80 | A4P | 2.01
81 | A4S | 2.54
82 | A4L | 2.29
83 | A4D | 2.11
84 | A4R | 1.73
85 | A4F | 2.71
86 | A4M | 1.69
87 | A4H | 1.57
88 | A4G | 2.04
89 | A4I | 2.08
90 | A4N | 1.52
91 | A4E | 2.51
92 | A4T | 2.13
93 | A4Y | 2.03
94 | A4Q | 2.09
95 | A4K | 1.71
96 | A4V | 1.93
97 | E5P | 3
98 | E5Y | 1.76
99 | E5V | 3.62
100 | E5H | 2.26
101 | E5R | 2.66
102 | E5M | 2.79
103 | E5G | 2.87
104 | E5Q | 2.71
105 | E5C | 2.25

Row | Variant | protein stability index
106 | E5I | 2.81
107 | E5S | 2.52
108 | E5L | 3.1
109 | E5F | 2.5
110 | E5N | 3.04
111 | E5A | 2.69
112 | E5T | 3.32
113 | E5D | 2.27
114 | E5W | 2.58
115 | D7K | 1.51
116 | D7R | 2.35
117 | D7V | 2.13
118 | D7I | 2.93
119 | D7L | 3.27
120 | D7H | 2.78
121 | D7W | 2.21
122 | D7C | 2.28
123 | D7E | 1.89
124 | D7N | 2.05
125 | D7S | 1.79
126 | D7A | 2.18
127 | D7G | 2.22
128 | D7T | 1.75
129 | D7P | 2.22
130 | D7M | 1.73
131 | D7Y | 2.44

Row | Variant | protein stability index
132 | D7Q | 1.3
133 | D7F | 2.52
134 | E11R | 2.89
135 | E11P | 3.15
136 | E11C | 2.21
137 | E11Y | 1.76
138 | E11V | 1.95
139 | E11S | 2.47
140 | E11N | 3.58
141 | E11K | 2.65
142 | E11F | 1.59
143 | E11G | 2.68
144 | E11L | 2.19
145 | E11H | 2.58
146 | E11D | 2.77
147 | E11T | 2.43
148 | E11A | 2.02
149 | E11Q | 2.29
150 | E11W | 1.59
151 | E11I | 1.72
152 | E11M | 1.9
153 | I12Y | 3.2
154 | I12P | 4.45
155 | I12W | 2.89
156 | I12G | 3.81
157 | I12T | 3.07

Row | Variant | protein stability index
158 | I12N | 4.68
159 | I12R | 4.3
160 | I12D | 4.64
161 | I12A | 2.32
162 | I12Q | 4.06
163 | I12L | 2.63
164 | I12E | 4.52
165 | I12V | 2.1
166 | I12F | 2.89
167 | I12K | 3.98
168 | I12S | 2.59
169 | I12M | 1.94
170 | I12C | 1.58
171 | I12H | 4.29
172 | L2Q | 2.03
173 | L2P | 2.68
174 | L2D | 1.73
175 | L2E | 1.68
176 | L2W | 2.02
177 | L2S | 1.91
178 | L2Y | 1.85
179 | L2V | 1.91
180 | L2G | 3.19
181 | L2A | 2.19
182 | L2T | 2.08
183 | L2K | 2.11

Row | Variant | protein stability index
184 | L2H | 1.75
185 | L2C | 1.82
186 | L2F | 1.71
187 | L2R | 2.4
188 | L2I | 1.66
189 | L2N | 2.38
190 | L2M | 1.96
191 | F1P | 2.78
192 | F1H | 2.5
193 | F1L | 2.36
194 | F1V | 2.62
195 | F1W | 1.85
196 | F1Q | 2.23
197 | F1S | 2.51
198 | F1E | 2.45
199 | F1C | 1.9
200 | F1D | 2.49
201 | F1Y | 2.04
202 | F1N | 3.17
203 | F1I | 2.51
204 | F1K | 2.41
205 | F1R | 2.79
206 | F1M | 2.39
207 | F1A | 2.35
208 | F1T | 2.72
209 | F1G | 2.26

Row | Variant | protein stability index
210 | R9Q | 2.04
211 | R9M | 2.11
212 | R9D | 2.31
213 | R9Y | 2.29
214 | R9P | 3.1
215 | R9N | 2.28
216 | R9L | 2.26
217 | R9S | 2.26
218 | R9T | 2.06
219 | R9I | 1.84
220 | R9H | 1.49
221 | R9C | 1.43
222 | R9K | 2.69
223 | R9F | 2.4
224 | R9W | 1.64
225 | R9G | 3.12
226 | R9A | 1.48
227 | R9E | 1.69
228 | R9V | 1.75
229 | R13H | 2.7
230 | R13I | 1.43
231 | R13F | 1.55
232 | R13C | 1.94
233 | R13T | 2.82
234 | R13Y | 2.73
235 | R13E | 1.89

Row | Variant | protein stability index
236 | R13A | 1.94
237 | R13L | 1.83
238 | R13S | 2.12
239 | R13N | 2.16
240 | R13P | 3.64
241 | R13Q | 2.14
242 | R13M | 2.07
243 | R13G | 1.94
244 | R13K | 1.89
245 | R13W | 2.18
246 | R13D | 1.84
247 | R13V | 1.66
248 | A3Y | 2.03
249 | A3V | 1.88
250 | A3I | 1.87
251 | A3R | 2.56
252 | A3P | 2.17
253 | A3W | 1.5
254 | A3Q | 1.73
255 | A3M | 1.72
256 | A3S | 2.5
257 | A3G | 1.87
258 | A3K | 2.13
259 | A3H | 2.1
260 | A3L | 2.33
261 | A3F | 2.02

Row | Variant | protein stability index
262 | A3N | 1.88
263 | A3D | 2.38
264 | A3T | 2
265 | A3E | 2.42
266 | A3C | 1.36
267 | E10L | 1.96
268 | E10W | 2.08
269 | E10F | 1.35
270 | E10G | 2.92
271 | E10K | 2.15
272 | E10C | 2.47
273 | E10S | 2.33
274 | E10Q | 1.85
275 | E10P | 3.21
276 | E10I | 1.53
277 | E10Y | 1.96
278 | E10N | 2.12
279 | E10T | 2.83
280 | E10H | 2.5
281 | E10M | 1.88
282 | E10R | 2.06
283 | E10D | 1.63
284 | E10A | 2.11
285 | E10V | 2.39
286 | I8E | 3.64
287 | I8N | 4.12

Row | Variant | protein stability index
288 | I8V | 2.17
289 | I8G | 4.12
290 | I8K | 2.56
291 | I8R | 3.15
292 | I8A | 3.02
293 | I8L | 2.02
294 | I8C | 2.56
295 | I8F | 2.57
296 | I8Q | 3.16
297 | I8Y | 2.42
298 | I8H | 3.17
299 | I8M | 1.73
300 | I8P | 3.41
301 | I8W | 2.65
302 | I8D | 3.44
303 | I8T | 2.78
304 | I8S | 3.33
305 | Q6R | 2.53
306 | Q6K | 1.78
307 | Q6G | 1.84
308 | Q6S | 2.25
309 | Q6D | 1.85
310 | Q6N | 1.91
311 | Q6M | 1.86
312 | Q6E | 2.85
313 | Q6I | 2.1

Row | Variant | protein stability index
314 | Q6F | 1.87
315 | Q6H | 1.63
316 | Q6T | 1.46
317 | Q6V | 1.79
318 | Q6Y | 2.09
319 | Q6A | 2.01
320 | Q6W | 2.75
321 | Q6C | 1.65
322 | Q6P | 2.85
323 | Q6L | 1.99
324 | K14L | 2.13
325 | K14E | 2.36
326 | K14G | 2.03
327 | K14F | 1.48
328 | K14A | 2.08
329 | K14N | 2.52
330 | K14C | 2.07
331 | K14I | 1.39
332 | K14M | 2.24
333 | K14H | 1.98
334 | K14D | 3.41
